{"source": "the supplement of paper PMC9112550", "about": "“Optimization of the antimicrobial peptide Bac7 by deep mutational scanning” (BMC Biology, 2022);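 further: peptides expressed intracellularly from a pBAD plasmid library in pooled LB shake-flask culture, induced with 0.3% L-arabinose, DNA abundance read by NGS, three biological replicates, DESeq2 with apeglm shrinkage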"}
{"tested_on": "Escherichia coli TOP10", "test": "shrunken log2 fold change of peptide-encoding DNA abundance (4.5 h post-induction vs induction); higher = less antimicrobial activity (less host growth inhibition)", "settings": "time post-induction: 4.5 h; library: site-saturation at positions 5, 18, 19, 20"}
{"sequence": "RRIRVRPPRLPRPRPRPSSAPRP", "shrunken log2 fold change": 0.0552}
{"sequence": "RRIRSRPPRLPRPRPRPIYVPRP", "shrunken log2 fold change": -0.612}
{"sequence": "RRIRRRPPRLPRPRPRPAEHPRP", "shrunken log2 fold change": 0.313}
{"sequence": "RRIRMRPPRLPRPRPRPIQNPRP", "shrunken log2 fold change": -0.157}
{"sequence": "RRIRWRPPRLPRPRPRPSWIPRP", "shrunken log2 fold change": 0.0261}
{"sequence": "RRIRWRPPRLPRPRPRPSRDPRP", "shrunken log2 fold change": 0.479}
{"sequence": "RRIRFRPPRLPRPRPRPEGQPRP", "shrunken log2 fold change": 0.15}
{"sequence": "RRIRFRPPRLPRPRPRPDFQPRP", "shrunken log2 fold change": -0.546}
{"sequence": "RRIRDRPPRLPRPRPRPRQRPRP", "shrunken log2 fold change": 0.708}
{"sequence": "RRIRTRPPRLPRPRPRPMQTPRP", "shrunken log2 fold change": 0.0276}
{"sequence": "RRIRSRPPRLPRPRPRPMGRPRP", "shrunken log2 fold change": 0.0253}
{"sequence": "RRIRLRPPRLPRPRPRPGMFPRP", "shrunken log2 fold change": -0.322}
{"sequence": "RRIRKRPPRLPRPRPRPKNIPRP", "shrunken log2 fold change": -0.253}
{"sequence": "RRIRDRPPRLPRPRPRPMHGPRP", "shrunken log2 fold change": -0.123}
{"sequence": "RRIRFRPPRLPRPRPRPRDVPRP", "shrunken log2 fold change": 0.728}
{"sequence": "RRIRVRPPRLPRPRPRPRAFPRP", "shrunken log2 fold change": 0.294}
{"sequence": "RRIRGRPPRLPRPRPRPGSHPRP", "shrunken log2 fold change": 0.12}
{"sequence": "RRIRMRPPRLPRPRPRPPNCPRP", "shrunken log2 fold change": 0.0335}
{"sequence": "RRIRCRPPRLPRPRPRPHGNPRP", "shrunken log2 fold change": -0.233}
{"sequence": "RRIRDRPPRLPRPRPRPCDWPRP", "shrunken log2 fold change": 0.0416}
{"sequence": "RRIRPRPPRLPRPRPRPGEIPRP", "shrunken log2 fold change": 0.21}
{"sequence": "RRIRYRPPRLPRPRPRPCQHPRP", "shrunken log2 fold change": -0.253}
{"sequence": "RRIRWRPPRLPRPRPRPFEMPRP", "shrunken log2 fold change": -0.116}
{"sequence": "RRIRLRPPRLPRPRPRPAALPRP", "shrunken log2 fold change": 0.182}
{"sequence": "RRIRWRPPRLPRPRPRPCNLPRP", "shrunken log2 fold change": -0.161}
{"sequence": "RRIRSRPPRLPRPRPRPHWKPRP", "shrunken log2 fold change": 0.0398}
{"sequence": "RRIRCRPPRLPRPRPRPEGVPRP", "shrunken log2 fold change": 2.48}
{"sequence": "RRIRSRPPRLPRPRPRPVWQPRP", "shrunken log2 fold change": 0.168}
{"sequence": "RRIRDRPPRLPRPRPRPISIPRP", "shrunken log2 fold change": 0.0218}
{"sequence": "RRIRFRPPRLPRPRPRPHNIPRP", "shrunken log2 fold change": -0.501}
{"sequence": "RRIRGRPPRLPRPRPRPCHWPRP", "shrunken log2 fold change": -0.175}
{"sequence": "RRIRVRPPRLPRPRPRPAPEPRP", "shrunken log2 fold change": 0.514}
{"sequence": "RRIRARPPRLPRPRPRPGPVPRP", "shrunken log2 fold change": 0.611}
{"sequence": "RRIRVRPPRLPRPRPRPQWHPRP", "shrunken log2 fold change": -0.311}
{"sequence": "RRIRARPPRLPRPRPRPPVRPRP", "shrunken log2 fold change": 0.609}
{"sequence": "RRIRYRPPRLPRPRPRPRNAPRP", "shrunken log2 fold change": 0.00628}
{"sequence": "RRIRARPPRLPRPRPRPWHGPRP", "shrunken log2 fold change": 0.0697}
{"sequence": "RRIRMRPPRLPRPRPRPLCLPRP", "shrunken log2 fold change": -0.0538}
{"sequence": "RRIRQRPPRLPRPRPRPDARPRP", "shrunken log2 fold change": 0.422}
{"sequence": "RRIRLRPPRLPRPRPRPKTQPRP", "shrunken log2 fold change": -0.189}
{"sequence": "RRIRQRPPRLPRPRPRPQAPPRP", "shrunken log2 fold change": 0.233}
{"sequence": "RRIRRRPPRLPRPRPRPENEPRP", "shrunken log2 fold change": 0.119}
{"sequence": "RRIRSRPPRLPRPRPRPFKAPRP", "shrunken log2 fold change": -0.0415}
{"sequence": "RRIRLRPPRLPRPRPRPRAHPRP", "shrunken log2 fold change": 0.244}
{"sequence": "RRIRYRPPRLPRPRPRPCLRPRP", "shrunken log2 fold change": -0.286}
{"sequence": "RRIRDRPPRLPRPRPRPGSAPRP", "shrunken log2 fold change": 0.238}
{"sequence": "RRIRARPPRLPRPRPRPKGHPRP", "shrunken log2 fold change": 0.359}
{"sequence": "RRIRSRPPRLPRPRPRPQRAPRP", "shrunken log2 fold change": 0.123}
{"sequence": "RRIRDRPPRLPRPRPRPCMEPRP", "shrunken log2 fold change": -0.0179}
{"sequence": "RRIRQRPPRLPRPRPRPSHTPRP", "shrunken log2 fold change": -0.195}
{"sequence": "RRIRMRPPRLPRPRPRPTPKPRP", "shrunken log2 fold change": 0.107}
{"sequence": "RRIRWRPPRLPRPRPRPEQRPRP", "shrunken log2 fold change": 0.248}
{"sequence": "RRIRCRPPRLPRPRPRPYQQPRP", "shrunken log2 fold change": -0.12}
{"sequence": "RRIRWRPPRLPRPRPRPRCIPRP", "shrunken log2 fold change": -0.036}
{"sequence": "RRIRYRPPRLPRPRPRPDFAPRP", "shrunken log2 fold change": 0.0515}
{"sequence": "RRIRRRPPRLPRPRPRPFMTPRP", "shrunken log2 fold change": 0.0665}
{"sequence": "RRIRNRPPRLPRPRPRPPSKPRP", "shrunken log2 fold change": -0.161}
{"sequence": "RRIRHRPPRLPRPRPRPHFHPRP", "shrunken log2 fold change": -0.648}
{"sequence": "RRIRTRPPRLPRPRPRPRDRPRP", "shrunken log2 fold change": 0.19}
{"sequence": "RRIRLRPPRLPRPRPRPFGGPRP", "shrunken log2 fold change": -0.334}
{"sequence": "RRIRARPPRLPRPRPRPPIHPRP", "shrunken log2 fold change": -0.11}
{"sequence": "RRIRGRPPRLPRPRPRPEIGPRP", "shrunken log2 fold change": 1.92}
{"sequence": "RRIRLRPPRLPRPRPRPMFNPRP", "shrunken log2 fold change": -0.524}
{"sequence": "RRIRQRPPRLPRPRPRPGQEPRP", "shrunken log2 fold change": -0.018}
{"sequence": "RRIRERPPRLPRPRPRPYAPPRP", "shrunken log2 fold change": -0.624}
{"sequence": "RRIRDRPPRLPRPRPRPTCWPRP", "shrunken log2 fold change": 1.09}
{"sequence": "RRIRYRPPRLPRPRPRPTQIPRP", "shrunken log2 fold change": -0.292}
{"sequence": "RRIRERPPRLPRPRPRPSHTPRP", "shrunken log2 fold change": -0.248}
{"sequence": "RRIRIRPPRLPRPRPRPWLFPRP", "shrunken log2 fold change": 0.0545}
{"sequence": "RRIRDRPPRLPRPRPRPWWFPRP", "shrunken log2 fold change": -0.00226}
{"sequence": "RRIRPRPPRLPRPRPRPTQVPRP", "shrunken log2 fold change": 0.124}
{"sequence": "RRIRKRPPRLPRPRPRPHQVPRP", "shrunken log2 fold change": -0.182}
{"sequence": "RRIRPRPPRLPRPRPRPATEPRP", "shrunken log2 fold change": 0.0977}
{"sequence": "RRIRQRPPRLPRPRPRPDFMPRP", "shrunken log2 fold change": -0.316}
{"sequence": "RRIRNRPPRLPRPRPRPWYCPRP", "shrunken log2 fold change": -0.451}
